From patent US20030129186A1 (published 2003)

Legend:
[1] = biological target: T1, p97 receptor (melanotransferrin receptor, MTf-R) on bovine brain capillary endothelial cells (BBCECs) (bovine); test: cell-based or functional assay
[2] = biological target: p97 receptor on isolated human brain capillaries (human); test: cell-based or functional assay
[3] = biological target: T1, p97 receptor (melanotransferrin …); test: [125I]-p97 (25 nM) binding to BBCECs, 2 h at 4 C, with or without saponin
[4] = biological target: T1, p97 receptor (melanotransferrin …); test: Scatchard plot of specific [125I]-p97 binding to saponin-treated BBCECs (FIG. 12c)
[5] = biological target: T1, p97 receptor (melanotransferrin …); test: Scatchard analysis of [125I]-p97 binding to saponin-permeabilized BBCEC monolayers at 4 C, displaced by unlabelled p97

- decrease in apical-to-basal transport of [125I]-p97 (25 nM) across BBCEC monolayers with a 200-fold molar excess of unlabelled p97 [1]: 69%
- decrease in uptake of [125I]-p97 (100 nM) into isolated human brain capillaries, 1 h at 37 C, with a 50-fold molar excess of unlabelled p97 [2]: 60%
- fold increase of [125I]-p97 associated with cells after saponin permeabilization (against untreated cells) [3]: 4 fold
- Kd [4]: ~1000 nM
- Kd [5]: 1400 nM
B1: recombinant human melanotransferrin (p97) (ligand, UniProt P08582 20-709, looked up)
chain: GMEVRWCATSDPEQHKCGNMSEAFREAGIQPSLLCVRGTSADHCVQLIAAQEADAITLDGGAIYEAGKEHGLKPVVGEVYDQEVGTSYYAVAVVRRSSHVTIDTLKGVKSCHTGINRTVGWNVPVGYLVESGRLSVMGCDVLKAVSDYFGGSCVPGAGETSYSESLCRLCRGDSSGEGVCDKSPLERYYDYSGAFRCLAEGAGDVAFVKHSTVLENTDGKTLPSWGQALLSQDFELLCRDGSRADVTEWRQCHLARVPAHAVVVRADTDGGLIFRLLNEGQRLFSHEGSSFQMFSSEAYGQKDLLFKDSTSELVPIATQTYEAWLGHEYLHAMKGLLCDPNRLPPYLRWCVLSTPEIQKCGDMAVAFRRQRLKPEIQCVSAKSPQHCMERIQAEQVDAVTLSGEDIYTAGKTYGLVPAAGEHYAPEDSSNSYYVVAVVRRDSSHAFTLDELRGKRSCHAGFGSPAGWDVPVGALIQRGFIRPKDCDVLTAVSEFFNASCVPVNNPKNYPSSLCALCVGDEQGRNKCVGNSQERYYGYRGAFRCLVENAGDVAFVRHTTVFDNTNGHNSEPWAAELRSEDYELLCPNGARAEVSQFAACNLAQIPPHAVMVRPDTNIFTVYGLLDKAQDLFGDDHNKNGFKMFDSSNYHGQDLLFKDATVRAVPVGEKTTYRGWLGLDYVAALEGMSSQQC
notes: also called MTf
